Key:
[1] = target: the molecule itself; assay: crystal structure; ctPan3 PKC bound to ctPan2 343–458, P21 symmetry, two copies of the complex in the asymmetric unit, molecular replacement
[2] = target: T1, ctPan2 Δ343–352 (PID deletion in full-length ctPan2) (Chaetomium thermophilum, UniProt G0SAK8 1-1170, Δ343–352); assay: SEC; separately purified ctPan2 constructs and ctPan3 PKC dimer mixed 1:1 at 1 μM, 15 min at room temperature; Superdex 200 Increase 3.2/300 in 20 mM Tris pH 8.0, 500 mM NaCl, 2 mM TCEP; fractions on SDS–PAGE; conditions: both partners purified
T1 sequence (looked up): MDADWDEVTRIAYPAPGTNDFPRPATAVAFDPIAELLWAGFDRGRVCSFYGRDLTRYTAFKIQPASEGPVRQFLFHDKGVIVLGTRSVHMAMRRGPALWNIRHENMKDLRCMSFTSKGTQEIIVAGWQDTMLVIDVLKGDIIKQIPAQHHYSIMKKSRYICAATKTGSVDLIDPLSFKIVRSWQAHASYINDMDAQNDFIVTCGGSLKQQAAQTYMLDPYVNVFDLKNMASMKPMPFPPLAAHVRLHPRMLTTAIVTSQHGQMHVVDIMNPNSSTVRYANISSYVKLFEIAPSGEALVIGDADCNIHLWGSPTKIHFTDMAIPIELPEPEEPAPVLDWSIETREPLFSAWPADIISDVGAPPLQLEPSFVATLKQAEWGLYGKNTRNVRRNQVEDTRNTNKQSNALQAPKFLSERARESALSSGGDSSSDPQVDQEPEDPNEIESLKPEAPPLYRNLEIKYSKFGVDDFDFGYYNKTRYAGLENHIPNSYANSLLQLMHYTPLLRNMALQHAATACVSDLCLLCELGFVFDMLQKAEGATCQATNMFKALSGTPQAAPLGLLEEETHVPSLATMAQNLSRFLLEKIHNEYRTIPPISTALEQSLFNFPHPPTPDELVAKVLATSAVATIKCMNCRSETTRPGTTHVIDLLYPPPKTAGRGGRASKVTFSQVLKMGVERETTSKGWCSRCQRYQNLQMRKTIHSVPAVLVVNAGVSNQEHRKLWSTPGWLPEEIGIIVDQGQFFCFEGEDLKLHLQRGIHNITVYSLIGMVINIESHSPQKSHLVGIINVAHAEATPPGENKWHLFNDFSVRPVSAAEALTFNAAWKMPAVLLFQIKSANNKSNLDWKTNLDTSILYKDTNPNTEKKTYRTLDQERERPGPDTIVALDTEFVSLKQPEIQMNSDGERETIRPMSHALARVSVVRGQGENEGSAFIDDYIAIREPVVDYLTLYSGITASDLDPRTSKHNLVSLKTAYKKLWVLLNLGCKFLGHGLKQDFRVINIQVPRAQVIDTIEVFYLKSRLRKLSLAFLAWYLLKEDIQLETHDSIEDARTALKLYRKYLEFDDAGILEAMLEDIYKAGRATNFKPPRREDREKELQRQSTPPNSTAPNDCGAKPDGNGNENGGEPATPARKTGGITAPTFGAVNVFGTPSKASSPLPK

[3] = target: T2, ctPan2 Δ343–375 (PID deletion in full-length ctPan2) (Chaetomium thermophilum, UniProt G0SAK8 1-1170, Δ343–375); assay: as above; conditions: both partners purified
T2 sequence (looked up): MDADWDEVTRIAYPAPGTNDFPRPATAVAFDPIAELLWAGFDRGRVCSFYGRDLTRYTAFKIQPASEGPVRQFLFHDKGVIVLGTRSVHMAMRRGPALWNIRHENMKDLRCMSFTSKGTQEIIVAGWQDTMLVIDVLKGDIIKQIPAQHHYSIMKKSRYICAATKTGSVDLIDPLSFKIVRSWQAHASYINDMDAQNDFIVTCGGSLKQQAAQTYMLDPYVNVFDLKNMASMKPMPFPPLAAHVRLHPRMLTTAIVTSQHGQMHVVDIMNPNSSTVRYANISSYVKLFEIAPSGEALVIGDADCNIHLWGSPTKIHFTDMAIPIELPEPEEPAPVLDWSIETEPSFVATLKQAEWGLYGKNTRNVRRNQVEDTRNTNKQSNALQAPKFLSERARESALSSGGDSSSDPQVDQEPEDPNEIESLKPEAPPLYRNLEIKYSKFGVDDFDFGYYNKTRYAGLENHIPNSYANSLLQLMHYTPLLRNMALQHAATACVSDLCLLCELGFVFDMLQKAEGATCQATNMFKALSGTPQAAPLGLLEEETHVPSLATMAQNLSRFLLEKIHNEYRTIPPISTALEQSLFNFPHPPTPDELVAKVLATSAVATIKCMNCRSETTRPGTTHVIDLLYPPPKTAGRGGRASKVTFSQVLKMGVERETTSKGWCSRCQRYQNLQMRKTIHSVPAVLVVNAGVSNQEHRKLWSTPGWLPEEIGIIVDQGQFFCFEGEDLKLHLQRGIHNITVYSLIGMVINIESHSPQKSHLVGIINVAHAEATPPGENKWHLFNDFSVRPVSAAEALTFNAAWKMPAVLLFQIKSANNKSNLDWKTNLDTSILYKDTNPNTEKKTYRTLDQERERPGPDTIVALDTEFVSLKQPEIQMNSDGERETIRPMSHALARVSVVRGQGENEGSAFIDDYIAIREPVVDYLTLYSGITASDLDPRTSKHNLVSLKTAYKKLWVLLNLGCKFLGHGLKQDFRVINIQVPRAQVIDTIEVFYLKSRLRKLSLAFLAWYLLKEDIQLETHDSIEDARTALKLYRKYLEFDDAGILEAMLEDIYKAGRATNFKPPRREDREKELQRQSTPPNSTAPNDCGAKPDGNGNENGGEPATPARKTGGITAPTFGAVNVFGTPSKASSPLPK

Measured: binding result

B1: ctPan3 pseudokinase/C-terminal domain (PKC, residues 205–640), purified from E. coli (domain or fragment, Chaetomium thermophilum, UniProt G0S0Y3 205-640, looked up)
chain: RQELQPWQRATYDFFMPQNLREDLQKKQFATLQVIPNSGLPQLEHWHSLVPLDTSNRKNTSCFGYPSWVYKAQNSRNGRHYALRRLEGYRLTNEKAILNVMKDWKKIKNASIVTIHEVFTTREFGDSSLIFAYDFHPLSKTLQEHHFQPIHGNRYRPPPAVPENTIWGYICQIANALKTIHSNRLAARCLEPSKIILTDINRIRLSACAILDVVQFGMNSRSVVELQQEDFVKFGKLILSLATGTLPAHLNNIPAALETLGNKYSANLKSAVNWLLDTSSGETKTIEHFMTGIASQMTTFFDLALQDNDEKLFHLAREVENGRIARSLMKLLTILERGDYDGVPSWSETGDRYQLKLFRDYVFHRVDADGKPNLSIGHMLTCMSKLEAGVDENILLTSRDNETVFVLSYRELRQMYDRAFNELVKASKTGAPGANT
notes: Pan3, Chaetomium thermophilum, pseudokinase (242-497), coiled coil (499-538) and C-terminal domain (555-640), construct residues 205-640; The crystals of ctPan3 PKC alone (PDB 4CYI) were of Se-Met-labelled protein; also called ctPan3 PKC; ctPan3 PKC dimer; source: E. coli, purified (glutathione Sepharose)
binds: all assays above
